From US20170015742A1 (published 2017)
Blank lines part the entries; values can stand above or below the binder they belong to.

Legend:
Human PDGF-BB [1] = molecular target: T1, Human PDGF-BB (human, UniProt P01127 82-190); assay: Biacore SPR (Example 1.1)
T1 construct: Recombinant human PDGF-BB, a dimer of two B chains; also called huPDGF-BB; hPDGF-BB
Method: (§1) Unreacted moieties on the biosensor surface were blocked with ethanolamine. For kinetic analysis, rate equations derived from the 1:1 Langmuir binding model were fitted simultaneously to multiple antigen injections (using global fit analysis) with the use of Scrubber 2 (BioLogic Software), Biacore Biaevaluation 4.0.1 software or Biacore T100 Evaluation software. Purified antibodies or DVD-Ig molecules were diluted in running buffer for capture across goat anti-human Fc reaction surfaces. Antibodies or DVD-Ig molecules to be captured as a ligand (1 μg/ml) were injected over reaction matrices at a flow rate of 10 μl/minute. During the assay, all measurements were referenced against the capture surface alone (i.e., with no captured antibody or DVD-Ig molecule). […] The equilibrium dissociation constant KD (M) of the reaction between antibodies and the target antigen was then calculated from the kinetic rate constants by the following formula: KD=Koff/Kₒₙ. Binding was recorded as a function of time and kinetic rate constants were calculated. In this assay, on-rates as fast as 10⁶M⁻¹s⁻¹ and off-rates as slow as 10⁻⁶ s⁻¹ could be measured.

Human PDGF-BB [2] = molecular target: T1, Human PDGF-BB; assay: Biacore SPR (Example 1.1); footnote **: heterogeneous off-rate
Method: as §1

[3] = molecular target: T2, recombinant human VEGF-R2-Fc (R&D Systems cat#357-KD) (human, UniProt P35968 20-764); assay: direct binding ELISA on coated recombinant human VEGF-R2-Fc (Example 1.22)
T2 construct: Bought reagent; also called hVEGFR2-Fc; hVEGF-R2 (KDR/Flk-1); not shown: Fc part of the bought fusion protein
Method: Plates were then washed four times with wash buffer (TBS, 0.05% Tween-20) and blocked with Superblock blocking buffer (Thermo Scientific, cat#37535). […] Following incubation, plates were washed four times with wash buffer. […] Plates were washed four times with wash buffer and developed with the addition of Enhanced K-blue TMB substrate (Neogen cat#308177). The reaction was stopped with 2N sulfuric acid (VWR, cat# BDH3500-1) and the absorbance was read at 450 nm-570 nm. […] Data was analyzed using Softmax Pro 4.8 software and IC₅₀ values calculated using a sigmoidal dose response (variable slope) fit in GraphPad Prism 5.

[4] = molecular target: T3, recombinant human VEGF165 (human, UniProt P15692 207-395); assay: cell-based or functional assay
[5] = molecular target: T4, recombinant human PDGF-BB (human, UniProt P01127 82-190); assay: cell-based or functional assay
[6] = molecular target: T3, recombinant human VEGF165; assay: competition ELISA: DVD-Ig titrated against biotinylated hVEGF165 binding to coated hVEGFR2-Fc
Method: To identify molecules that could block the binding of hVEGF₁₆₅ to the hVEGF-R2 (KDR/Flk-1) receptor, a competition ELISA was performed. […] Plates were then washed four times with wash buffer (TBS, 0.05% Tween-20) and blocked with Superblock blocking buffer (Thermo Scientific, cat#37535). […] The pre-incubated sample/hVEGF₁₆₅ complex was added to the coated plate at 50 μL in duplicate and incubated for 30 minutes at 25° C. with shaking. Following incubation, plates were washed four times with wash buffer. Streptavidin-polyHRP-40 (Fitzgerald cal#65r-s104phrp) was diluted in assay diluent (10% Superblock containing 0.05% surfactamps) and added to plates (50 μL) for 45 minutes at 25° C. with shaking. Plates were washed four times with wash buffer and developed with the addition of Enhanced K-blue TMB substrate (Neogen cat#308177). The reaction was stopped with 2N sulfuric acid (VWR, cat# BDH3500-1) and the absorbance was read at 450 nm-570 nm. A decrease in observed optical density indicates the test molecule is blocking the hVEGF₁₆₅ binding to the hVEGF-R2-Fc. Data was analyzed using Softmax Pro 4.8 software and IC₅₀ values calculated using a sigmoidal dose response (variable slope) fit in GraphPad Prism 5.

[7] = molecular target: T4, recombinant human PDGF-BB; assay: competition ELISA: DVD-Ig titrated against biotinylated hPDGF-BB binding to coated hPDGF-Rbeta-Fc
Method: (§2) Plates were then washed four times with wash buffer (TBS, 0.05% Tween-20) and blocked with Superblock blocking buffer (Thermo Scientific, cat#37535). During the blocking step, supernatants, antibodies, benchmark compounds or DVD-Ig were diluted in assay diluent (10% Superblock containing 0.05% surfactamps) and an eight point titration of each sample molecule was performed. […] Following incubation, plates were washed four times with wash buffer. Detection reagent Streptavidin-polyHRP-40 (Fitzgerald, cat#65r-s104phrp) was diluted in assay diluent and added to plates (50 μL) for 45 minutes at 25° C. with shaking. Plates were washed four times with wash buffer and developed with the addition of Enhanced K-blue TMB substrate (Neogen, cat#308177). The reaction was stopped with 2N sulfuric acid (VWR, cat# BDH3500-1) and the absorbance was read at 450 nm-570 nm. […] Data was analyzed using Softmax Pro 4.8 software and IC₅₀ values calculated using a sigmoidal dose response (variable slope) fit in GraphPad Prism 5.

Human PDGF-BB [8] = molecular target: T1, Human PDGF-BB; assay: cell-based or functional assay
Human PDGF-BB [9] = molecular target: T1, Human PDGF-BB; assay: competition ELISA: huPDGF-BB-biotin binding to coated huPDGF-Rβ-Fc (Example 1.13)
Method: as §2

Human PDGF-BB [10] = molecular target: T1, Human PDGF-BB; assay: Biacore SPR (Example 1.1); first of two rows for this clone
Method: as §1

Human PDGF-BB [11] = molecular target: T1, Human PDGF-BB; assay: Biacore SPR (Example 1.1); second of two rows for this clone
Method: as §1

T1 sequence (P01127 82-190 limits assumed): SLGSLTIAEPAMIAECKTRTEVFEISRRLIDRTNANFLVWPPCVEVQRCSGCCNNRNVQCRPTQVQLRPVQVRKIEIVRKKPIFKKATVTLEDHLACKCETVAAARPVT
T2 sequence (P35968 20-764 limits assumed): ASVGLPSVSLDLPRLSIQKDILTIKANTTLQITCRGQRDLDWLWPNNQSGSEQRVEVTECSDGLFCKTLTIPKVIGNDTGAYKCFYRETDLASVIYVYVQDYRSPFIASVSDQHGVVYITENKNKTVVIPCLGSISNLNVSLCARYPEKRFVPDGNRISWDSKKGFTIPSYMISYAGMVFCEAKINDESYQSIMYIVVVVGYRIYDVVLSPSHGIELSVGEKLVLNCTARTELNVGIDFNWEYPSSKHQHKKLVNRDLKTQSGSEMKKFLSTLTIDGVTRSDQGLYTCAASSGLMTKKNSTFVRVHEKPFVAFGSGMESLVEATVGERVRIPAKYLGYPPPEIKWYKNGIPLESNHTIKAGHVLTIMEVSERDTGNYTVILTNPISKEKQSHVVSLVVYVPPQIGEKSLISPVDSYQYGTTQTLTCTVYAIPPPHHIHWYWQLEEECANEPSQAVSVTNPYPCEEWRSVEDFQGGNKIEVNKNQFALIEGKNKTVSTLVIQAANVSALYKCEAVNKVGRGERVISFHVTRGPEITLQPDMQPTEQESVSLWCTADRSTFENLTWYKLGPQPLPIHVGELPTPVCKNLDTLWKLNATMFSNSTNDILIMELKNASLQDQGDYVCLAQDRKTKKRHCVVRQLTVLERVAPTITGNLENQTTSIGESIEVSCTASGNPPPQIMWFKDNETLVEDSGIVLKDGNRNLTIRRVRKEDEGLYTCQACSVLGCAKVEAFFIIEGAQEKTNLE
T3 sequence (P15692 other isoform, or with tags, fused parts or gaps limits assumed): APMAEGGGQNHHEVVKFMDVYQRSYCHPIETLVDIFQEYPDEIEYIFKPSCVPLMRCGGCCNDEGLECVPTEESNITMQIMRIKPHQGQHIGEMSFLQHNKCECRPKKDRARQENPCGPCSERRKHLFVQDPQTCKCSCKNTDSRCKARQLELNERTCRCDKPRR
T4 sequence (P01127 82-190 limits assumed): as the sequence (P01127 82-190 limits assumed) above

B1: BDI-1E1-D5 (antibody, V domains shown)
VH: EVKLQQSGDELVRPGASVKMSCKASGYTFTDYVMHWVKQSPGQGLEWIGTIIPLIDTTSYNQKFKGKATLTADKSSNTAYMELSRLTSEDSAVYYCARTSPYYYSSYDVMDAWGQGASVTVSS
VL: NIQLTQSPSLLSASVGDRVTLSCKGSQNINNYLAWYQQKLGEAPKLLIYKTNNLQTGIPSRFSGCGSGTDYTLTISSLHSEDLATYYCYQYDNGYTFGAGTKLELK
kon (Human PDGF-BB [1]): ≥ 1e+07 M⁻¹ s⁻¹
Kd (Human PDGF-BB [2]): ≤ 0.037 nM

B3: BCU-7A6-C2 (antibody, V domains shown)
VH: EVQLVESGGGLVQPRGSLKLSCAASGFDFNSYGMSWVRQAPGKGLDLVADISSKSYNYATYYADSVKDRFTISRDDSQSMVYLQMDNLKTEDTALYYCTESLELGGAYWGQGTLVTVSS
VL: DIQMTQSPPSLSASLGDEVTITCQASQNINKFIAWYQQKPGKAPRLLIRYTSTLKSGTPSRFSGSGSGRDYSFSISNVESEDIASYYCLQYDSLPWTFGGGTKLELK
notes: Rat hybridoma anti-human VEGFR II monoclonal antibody, isotype IgG2b/κ
binding result [3]: binds

B5: 4G8.3-SL-9E8.4 (g) DVD-Ig (PR-1572105) (bispecific antibody, human IgG1, kappa, L234A L235A)
heavy: EVQLVQSGSELKKPGASVKVSCKASGYTFTNYGMYWVRQAPGQGLEWMGWINTETGKPTYADDFKGRFVFSLDTSVSTAYLQISSLKAEDTAVYYCARTNYYYRSYIFYFDYWGQGTMVTVSSASTKGPEVTLRESGPALVKPTQTLTLTCTFSGFSLSTYGMGVGWIRQPPGKALEWLANIWWDDDKYYNPSLKNRLTISKDTSKNQVVLTMTNMDPVDTATYYCARIESIGTTYSFDYWGQGTMVTVSSASTKGPSVFPLAPSSKSTSGGTAALGCLVKDYFPEPVTVSWNSGALTSGVHTFPAVLQSSGLYSLSSVVTVPSSSLGTQTYICNVNHKPSNTKVDKKVEPKSCDKTHTCPPCPAPEAAGGPSVFLFPPKPKDTLMISRTPEVTCVVVDVSHEDPEVKFNWYVDGVEVHNAKTKPREEQYNSTYRVVSVLTVLHQDWLNGKEYKCKVSNKALPAPIEKTISKAKGQPREPQVYTLPPSREEMTKNQVSLTCLVKGFYPSDIAVEWESNGQPENNYKTTPPVLDSDGSFFLYSKLTVDKSRWQQGNVFSCSVMHEALHNAYTQKSLSLSPGK
light: DTVLTQSPATLSLSPGERATLSCRASESVSTHMHWYQQKPGQAPRLLIYGASNLESGVPARFSGSGSGTDFTLTISSLEPEDFAVYFCQQSWNDPFTFGQGTKLEIKRTVAAPSVFIFPPEFVLTQSPGTLSLSPGERATLSCERSSGDIGDSYVSWYQQKPGQAPRLVIYADDQRPSGIPDRFSGSGSGTDFTLTISRLEPEDFAVYYCQSYDINIDIVFGGGTKVEIKRTVAAPSVFIFPPSDEQLKSGTASVVCLLNNFYPREAKVQWKVDNALQSGNSQESVTEQDSKDSTYSLSSTLTLSKADYEKHKVYACEVTHQGLSSPVTKSFNRGEC
notes: DVD-Ig, outer hBDB-4G8.3 (VEGF), inner hBDI-9E8.4 (PDGF); IgG1 L234A, L235A, H435A / kappa; also called DVD-Ig-3
HMVEC-d hVEGF165 Potency IC50 [4]: 0.347 nM
NIH-3T3 hPDGF-BB Potency IC50 [5]: 0.29 nM
IC50 [6]: 0.111 nM
IC50 [7]: > 5 nM

B6: BFU-3E2-B9-B8 (antibody, V domains shown)
VH: EVQLQQSGPELQRPGASVKLSCKASGYTFTESYMYWVKQRPEQSLELIGRIDPEDGSTDYVEKFKNKATLTADTSSNTAYMQLSSLTSEDSATYFCARFGARSYFYPMDAWGQGTSVTVSS
VL: DTVLTQPPALAVSPGERVSISCRASESVSTLMHWYQQKPGQQPRLLIYGASNLESGVPARFSGSGSGTDFTLTIDPVEADDTATYFCQQSWNDPWTFGGGTKLELK
Phospho-Tyr751/hPDGF-BB Neutralization (Human PDGF-BB [8]): 0.642 nM
huPDGF-BB Neutralization Potency (nM) in NIH-3T3 Cells (Human PDGF-BB [8]): 0.247 nM
Kd (Human PDGF-BB [1]): ≤ 0.15 pM
kon (Human PDGF-BB [1]): ≥ 1e+07 M⁻¹ s⁻¹
IC50 (Human PDGF-BB [9]): > 50 nM

B7: BFU-11A8-D6-C3 (antibody, V domains shown)
VH: EVQLQQSGPELQRPGASVKLSCKASGYTFTESYIYWVKQRPEQSLELIGRIDPEDGSTDYVEKFKNKATLTADTSSNTAYMQLSSLTSEDTATYFCARFGARSYFYPMDAWGQGTSVTVSS
VL: DTVLTQSPTLAVSPGERVSIPCRASESVSTLMHWYQQKPGQQPRLLIYGASNLESGVPARFSGSGSGTDFTLTIDPVEADDTATYFCQQSWNDPWTFGGGTKLELK
Phospho-Tyr751/hPDGF-BB Neutralization (Human PDGF-BB [8]): 0.736 nM
huPDGF-BB Neutralization Potency (nM) in NIH-3T3 Cells (Human PDGF-BB [8]): 0.344 nM
Kd (Human PDGF-BB [1]): ≤ 0.047 pM
kon (Human PDGF-BB [1]): 2.1e+07 M⁻¹ s⁻¹
IC50 (Human PDGF-BB [9]): 7.09 nM

The next lines start with the values.

kon (Human PDGF-BB [1]): ≥ 1e+07 M⁻¹ s⁻¹
Kd (Human PDGF-BB [2]): ≤ 0.67 nM
B2: BDI-6A3-A9 (antibody, V domains shown)
VH: EVQLVESGGGLVQPGRSLKFSCAASGFSFSDSAMAWVRQAPKKGLEWVATIIYDGSGTYYRDSVKGRFTISRDNAKSTLYLQMDSLRSEDTATYYCARLGFNYGNYGYYVMDAWGQGASVTVSS
VL: QFTLTQPKSVSGSLRNTITIPCERSSGDIGDSYVSWYQQHLGRPPINVIFADDQRPSEVSDRFSGSIDSSSNSASLTITNLQMDDEADYFCQSYDSNIDINIVFGGGTKLTVL

binding result [3]: binds
B4: BCU-3D6-C9 (antibody, V domains shown)
VH: QIQLVQSGPELKKPGESVKISCKASEYTFTDYAIHWVKQAPGKGLKWMGWINTYTGKPTYADDFKGRFVFSLEASASTANLQISNLKNEDTATYFCARDYGGYGERRDYFDYWGQGVMVTVSS
VL: DIQMTQSPASLSASLGETVTIECRVSEDIYNGLAWYQQKPGKSPQFLIYNANRLHTGVPSRFSGSGSGTQFSLKINSLQSEDVANYFCQQYYDYPLTFGSATKLEIK
notes: Rat hybridoma anti-human VEGFR II monoclonal antibody

Kd (Human PDGF-BB [10]): ≤ 0.058 pM
kon (Human PDGF-BB [10]): ≥ 1.7e+07 M⁻¹ s⁻¹
Kd (Human PDGF-BB [11]): ≤ 0.1 pM
kon (Human PDGF-BB [11]): ≥ 1e+07 M⁻¹ s⁻¹
B8: BDI-9E8-E7 (antibody, V domains shown)
VH: QVTLKESGPGILQPSQTLSLTCTFSGFSLSTYGMGVGWIRQPSGKGLEWLANIWWDDDKYYNPSLKNRLTISKDTSNNQAFLKITNVDTADTATYYCARIESIGTTYSFDYWGQGVMVTVSS
VL: QFTLTQPKSVSGSLRSTITIPCERSSGDIGDSYVSWYQQHLGRPPINVIYADDQRPSEVSDRFSGSIDSSSNSASLTITNLQMDDEADYFCQSYDINIDIVFGGGTKLTVL
